Consider one molecule from JP2018127443A.

The experiment has as its target T1, 変性rFXIII-A (human) (UniProt P00488).
T1 sequence: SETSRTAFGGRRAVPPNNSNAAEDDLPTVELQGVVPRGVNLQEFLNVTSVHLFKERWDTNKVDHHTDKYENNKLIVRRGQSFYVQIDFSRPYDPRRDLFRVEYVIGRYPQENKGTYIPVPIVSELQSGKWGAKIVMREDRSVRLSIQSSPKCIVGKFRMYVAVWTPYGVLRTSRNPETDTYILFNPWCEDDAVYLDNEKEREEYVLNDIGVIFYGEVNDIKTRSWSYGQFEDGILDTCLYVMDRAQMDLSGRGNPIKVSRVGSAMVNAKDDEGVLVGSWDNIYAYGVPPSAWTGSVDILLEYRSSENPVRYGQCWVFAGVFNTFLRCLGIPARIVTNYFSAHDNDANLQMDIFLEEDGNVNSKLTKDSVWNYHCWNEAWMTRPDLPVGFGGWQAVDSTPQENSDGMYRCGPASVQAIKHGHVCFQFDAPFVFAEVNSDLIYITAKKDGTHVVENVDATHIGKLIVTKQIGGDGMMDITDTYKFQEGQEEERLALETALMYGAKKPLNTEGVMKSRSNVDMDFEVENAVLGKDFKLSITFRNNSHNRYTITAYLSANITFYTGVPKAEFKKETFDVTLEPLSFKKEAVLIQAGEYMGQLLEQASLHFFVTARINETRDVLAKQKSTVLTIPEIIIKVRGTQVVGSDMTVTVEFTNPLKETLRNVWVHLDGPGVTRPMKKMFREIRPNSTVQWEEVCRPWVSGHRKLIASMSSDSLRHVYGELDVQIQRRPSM
Nature of the experiment: solid-phase ELISA: denatured vs native rFXIII-A coated.

B1: ヒト抗FXIII-Aモノクローナル抗体 A75K (antibody, V domains shown)
VH: QVQLVESGGGVVQPGRSLSLSCAASGFNFISYGMHWVRQSPGKGLEWVAVISYDGSKKYYADFVKGRFTISRDNSKNTLFLQMNSLRGDDTAVFYCAKDRGFYGSGSSDYYYVMDVWGQGTTVTVSS
VL: DIQMTQSPSSLSASVGDRVTITCRASQGITNYLAWFQHKPGKAPKSLIYAASTLHRGVSSKFSGSGSGTDFTLTISNLQPEDFATYYCQQYKTYPITFGQGTRLDIK
As to B1, the fold change of binding, denatured against native rFXIII-A amounted to 2 fold.
